Bridges are numbered along the chain shown (N, C = ends). Where no end group is shown, it is not given here. [ ]: non-standard residue; d: D form. The star is where a group is joined. Acetyl(2-(4-imidazolyl)) = O=C(Cc1c[nH]cn1)*; Aib = CC(C)(N)C(=O)O

T1: human GIP receptor (human, UniProt P48546 22-466)
T1 sequence (looked up): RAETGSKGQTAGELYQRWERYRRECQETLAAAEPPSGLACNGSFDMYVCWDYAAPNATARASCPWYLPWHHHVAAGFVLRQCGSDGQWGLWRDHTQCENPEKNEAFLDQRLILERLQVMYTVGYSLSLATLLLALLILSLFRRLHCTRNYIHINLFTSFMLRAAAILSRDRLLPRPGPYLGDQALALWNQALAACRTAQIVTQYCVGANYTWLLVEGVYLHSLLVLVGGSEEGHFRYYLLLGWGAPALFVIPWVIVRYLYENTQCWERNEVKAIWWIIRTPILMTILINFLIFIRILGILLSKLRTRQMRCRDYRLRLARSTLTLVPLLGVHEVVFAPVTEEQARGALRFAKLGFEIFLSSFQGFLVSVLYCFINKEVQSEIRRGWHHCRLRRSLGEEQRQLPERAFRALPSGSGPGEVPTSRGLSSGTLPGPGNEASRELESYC

The target in one assay is human GLP-1 receptor (human, UniProt P43220 24-463). Put plainly: cell-based or functional assay.
As for Y[Aib]QGTFTSDYSKALDEKAAKDFVNWLLDHHPSSGQPPPSC (bridge 16-20; ends not checked) [triple agonist of SEQ ID NO: 99], the “In vitro activity (%) vs. GLP-1, cAMP EC50” value came out at 20.9%.
On to H[Aib]QGTFTSDVSSYLLGQAAKQFIAWLVKGGGPSSGAPPPSC [triple agonist of SEQ ID NO: 3], for which the “In vitro activity (%) vs. GLP-1, cAMP EC50” value was determined as 1.8%.
On the same count and under the same terms, the value for [Acetyl(2-(4-imidazolyl))]GQGTFTSDLSKQMDSEAQQLFIEWLKNGGPSSGAPPPSHG [triple agonist of SEQ ID NO: 16] was 2.1%; that for [Acetyl(2-(4-imidazolyl))]GEGTFISDYSIQLDEIAVQDFVEWLLAQKPSSGAPPPSHG [triple agonist of SEQ ID NO: 13] was less than 0.1%; that for Y[Aib]QGTFTSDYSKYLDEKRAKEFVQWLLDCHPSSGQPPPS (bridge 16-20; ends not checked) [triple agonist of SEQ ID NO: 97] was 10.5%.
For Y[Aib]QGTFTSDYSKYLDECRAKEFVQWLLAQKGKKNDWKHNIT (bridge 16-20) [triple agonist of SEQ ID NO: 23], the “In vitro activity (%) vs. GLP-1, cAMP EC50” value came to 4.01%.
On the same count and under the same terms, the value for Y[Aib]QGTFTSDYSKYLDEKRAKEFVQWLLDHCPSSGQPPPS (bridge 16-20) [triple agonist of SEQ ID NO: 96] was 34.4%; that for Y[Aib]QGTFTSDYSKALDEKAAKEFVNWLLDHHPSSGQPPPSC (bridge 16-20; ends not checked) [triple agonist of SEQ ID NO: 98] was 28.1%; that for Y[Aib]QGTFTSDYSKALDEKAAKDFVNWLLDQHPSSGQPPPSC (bridge 16-20; ends not checked) [triple agonist of SEQ ID NO: 102] was 23.3%.
Still for that read-out and setting: the value for [Acetyl(2-(4-imidazolyl))]GEGTFTSDLSKYLDSRRQQLFVQWLKAGGPSSGAPPPSHG [triple agonist of SEQ ID NO: 11] was 1.4%.
The same measure, in the same setting: the value for H[Aib]QGTFTSDYSKYLDEKAAKEFVQWLLNTC (bridge 16-20) [triple agonist of SEQ ID NO: 29] was 38.5%; that for H[Aib]QGTFTSDYSIAMDEIHQKDFVNWLLAQKC (bridge 16-20) [triple agonist of SEQ ID NO: 33] was 24.5%; that for Y[Aib]QGTFTSDYSKYLDECRAKEFVQWLLDHHPSSGQPPPS (bridge 16-20) [triple agonist of SEQ ID NO: 21] was 17.8%.

The target in the next assay is human GCG receptor (human, UniProt P47871 26-477). Put plainly: cell-based or functional assay.
human GCG receptor, sequence (P47871 26-477): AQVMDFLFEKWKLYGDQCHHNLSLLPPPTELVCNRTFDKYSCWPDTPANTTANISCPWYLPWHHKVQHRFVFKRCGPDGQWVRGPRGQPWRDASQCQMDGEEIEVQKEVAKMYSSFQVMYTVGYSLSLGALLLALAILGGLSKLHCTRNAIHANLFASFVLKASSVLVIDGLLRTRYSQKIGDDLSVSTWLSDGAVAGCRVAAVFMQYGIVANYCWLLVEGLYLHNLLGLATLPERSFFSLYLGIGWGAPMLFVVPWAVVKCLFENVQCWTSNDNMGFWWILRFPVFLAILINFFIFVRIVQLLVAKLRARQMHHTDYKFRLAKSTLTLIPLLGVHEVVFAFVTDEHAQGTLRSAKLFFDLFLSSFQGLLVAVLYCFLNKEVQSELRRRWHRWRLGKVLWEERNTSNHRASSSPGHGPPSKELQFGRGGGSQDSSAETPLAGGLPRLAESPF
As to Y[Aib]QGTFTSDYSKALDEKAAKDFVNWLLDHHPSSGQPPPSC (bridge 16-20; ends not checked) [triple agonist of SEQ ID NO: 99], the “In vitro activity (%) vs. Glucagon, cAMP EC50” value stood at 14.9%.
Still for that read-out and setting: the value for H[Aib]QGTFTSDVSSYLLGQAAKQFIAWLVKGGGPSSGAPPPSC [triple agonist of SEQ ID NO: 3] was less than 0.1%.
On the same count and under the same terms, under [Acetyl(2-(4-imidazolyl))]GQGTFTSDLSKQMDSEAQQLFIEWLKNGGPSSGAPPPSHG [triple agonist of SEQ ID NO: 16] stands less than 0.1%; under [Acetyl(2-(4-imidazolyl))]GEGTFISDYSIQLDEIAVQDFVEWLLAQKPSSGAPPPSHG [triple agonist of SEQ ID NO: 13], less than 0.1%; under Y[Aib]QGTFTSDYSKYLDEKRAKEFVQWLLDCHPSSGQPPPS (bridge 16-20; ends not checked) [triple agonist of SEQ ID NO: 97], 62.8%.
With Y[Aib]QGTFTSDYSKYLDECRAKEFVQWLLAQKGKKNDWKHNIT (bridge 16-20) [triple agonist of SEQ ID NO: 23], the “In vitro activity (%) vs. Glucagon, cAMP EC50” value worked out at 9.3%.
Same read-out and setting: the value for Y[Aib]QGTFTSDYSKYLDEKRAKEFVQWLLDHCPSSGQPPPS (bridge 16-20) [triple agonist of SEQ ID NO: 96] was 195%; that for Y[Aib]QGTFTSDYSKALDEKAAKEFVNWLLDHHPSSGQPPPSC (bridge 16-20; ends not checked) [triple agonist of SEQ ID NO: 98] was 8.2%.
Still for that read-out and setting: the value for Y[Aib]QGTFTSDYSKALDEKAAKDFVNWLLDQHPSSGQPPPSC (bridge 16-20; ends not checked) [triple agonist of SEQ ID NO: 102] was 29.5%; that for [Acetyl(2-(4-imidazolyl))]GEGTFTSDLSKYLDSRRQQLFVQWLKAGGPSSGAPPPSHG [triple agonist of SEQ ID NO: 11] was less than 0.1%; that for H[Aib]QGTFTSDYSKYLDEKAAKEFVQWLLNTC (bridge 16-20) [triple agonist of SEQ ID NO: 29] was 6%.
For the molecule H[Aib]QGTFTSDYSIAMDEIHQKDFVNWLLAQKC (bridge 16-20) [triple agonist of SEQ ID NO: 33], the “In vitro activity (%) vs. Glucagon, cAMP EC50” value is less than 0.1%.
Same read-out and setting: under Y[Aib]QGTFTSDYSKYLDECRAKEFVQWLLDHHPSSGQPPPS (bridge 16-20) [triple agonist of SEQ ID NO: 21] stands 267%.

In another assay the target is T1, human GIP receptor. The assay can be described thus: cell-based or functional assay.
Take Y[Aib]QGTFTSDYSKALDEKAAKDFVNWLLDHHPSSGQPPPSC (bridge 16-20; ends not checked) [triple agonist of SEQ ID NO: 99]: the “In vitro activity (%) vs. GIP, cAMP EC50” value was determined as 57.7%.
As to H[Aib]QGTFTSDVSSYLLGQAAKQFIAWLVKGGGPSSGAPPPSC [triple agonist of SEQ ID NO: 3], the “In vitro activity (%) vs. GIP, cAMP EC50” value was less than 0.1%.
The same measure, in the same setting: the value for [Acetyl(2-(4-imidazolyl))]GQGTFTSDLSKQMDSEAQQLFIEWLKNGGPSSGAPPPSHG [triple agonist of SEQ ID NO: 16] was less than 0.1%.
Still for that read-out and setting: under [Acetyl(2-(4-imidazolyl))]GEGTFISDYSIQLDEIAVQDFVEWLLAQKPSSGAPPPSHG [triple agonist of SEQ ID NO: 13] stands less than 0.1%.
On the same count and under the same terms, the value for Y[Aib]QGTFTSDYSKYLDEKRAKEFVQWLLDCHPSSGQPPPS (bridge 16-20; ends not checked) [triple agonist of SEQ ID NO: 97] was 2.6%; that for Y[Aib]QGTFTSDYSKYLDECRAKEFVQWLLAQKGKKNDWKHNIT (bridge 16-20) [triple agonist of SEQ ID NO: 23] was less than 0.1%; that for Y[Aib]QGTFTSDYSKYLDEKRAKEFVQWLLDHCPSSGQPPPS (bridge 16-20) [triple agonist of SEQ ID NO: 96] was 5.2%.
Regarding Y[Aib]QGTFTSDYSKALDEKAAKEFVNWLLDHHPSSGQPPPSC (bridge 16-20; ends not checked) [triple agonist of SEQ ID NO: 98], the “In vitro activity (%) vs. GIP, cAMP EC50” value was 47.1%.
Still for that read-out and setting: the value for Y[Aib]QGTFTSDYSKALDEKAAKDFVNWLLDQHPSSGQPPPSC (bridge 16-20; ends not checked) [triple agonist of SEQ ID NO: 102] was 58%; that for [Acetyl(2-(4-imidazolyl))]GEGTFTSDLSKYLDSRRQQLFVQWLKAGGPSSGAPPPSHG [triple agonist of SEQ ID NO: 11] was less than 0.1%.
H[Aib]QGTFTSDYSKYLDEKAAKEFVQWLLNTC (bridge 16-20) [triple agonist of SEQ ID NO: 29]: the “In vitro activity (%) vs. GIP, cAMP EC50” value is less than 0.1%.
As for H[Aib]QGTFTSDYSIAMDEIHQKDFVNWLLAQKC (bridge 16-20) [triple agonist of SEQ ID NO: 33], the “In vitro activity (%) vs. GIP, cAMP EC50” value came out at 10.4%.
Regarding Y[Aib]QGTFTSDYSKYLDECRAKEFVQWLLDHHPSSGQPPPS (bridge 16-20) [triple agonist of SEQ ID NO: 21], the “In vitro activity (%) vs. GIP, cAMP EC50” value was found to be 22.7%.
